Results from the DeepSol protein solubility set.

Test: soluble on expression in E. coli; label from the status in PepcDB or PDB records

Row | Sequence | soluble on expression in E. coli
1 | MADLFDEFIEPGVKNEIMDVEEAPENPMEKLDSAKKRQAREDMTNLLANMHNDVGVGNFDEATSKRARVEEEEEVEEARMENIIVHTIRTDNENCTHEVAIPPNAEFAELRENSGTEPAKYYPFQLDAFQKQAILCIDNNQSVLVSAHTSAGKTVVATYAIAKCLREKQRVIYTSPIKALSNQKYRELEEEFKDVGLMTGDVTLNPDASCLVMTTEILRSMLYRGSEIMKEVGWVVYDEIHYMRDKERGVVWEETIILMSKNIKQAFLSATIPNARQFAQWVASIKQQPVNVVYTDYRPTPLQHWIYPVGGEGMYEVVNVKGEFREDKFRDAMSGLATAGDSAGSFNKRRTGGGTQGDSNVLKIIRSVASNDGLNCIVFSFSRKECESYAISLKDMDFNKDHEKGMVKSVYESAIAQLSPEDQKLPQILNILPLLRRGIGVHHSGLMPILKETIEILFGEGLVKVLFATETFSMGLNMPARTVVFTSARKFDGSDNRYITSGEYIQMAGRAGRRGKDDRGTVILMVDSAMSADDAKQIIKGATDPLNSQFRLTYNMVLNLMRVEGMAVSWIINNSFHQFQSYAKIPEIDKKCVQVERKIASFNFPWENEMRTLVDLQDQLEATRQRIIQIQREPKYIVGFLHAGRLFKVKSGDRDFKWGILNQFKKEQNPDDRNDQIYLCDMMIAINTEGRFDPTNPATLVPGFDLPKRRWIRVPMTIDRITAISAVRLKVPADIDKPDGQMRLDGMMAAATKRFGNQIPLLDPIQDMEIKTVEMKELIAREKSLEGRLETHSMTKRDNMKDLKKQFEQKQDAVKELNALKAERKSVQSTLHLEELNNRKRVLRRLGYLGNDDALVLKGSVACELSASDELILTEMLLKGIFNTLDVAQTAALLSCFVFQDKCAAPKLATELQTCLSELHEQARNVAKVSNECKMEVMEDKYVSSFNPGLMDVVYQWVNGATFSEIVKTTDVFEGSIIRTLRRLEEVLREMINAAKALANKELEQKFEDARKNLKRDIVFAASLYL | not soluble
2 | MADLRLEREFAVAPEALFAWVSDGAKLLQWWGPEGLHVPADQHDLDFTRLGPWFSVMVNGEGQRYKVSGQVTHVKPPQSVGFTWGWHDDDDRRGAESHVMFIVEPCAKGARLILDHRELGDDEMSLRHEEGWTSSLRKLAAELALEHHHHHH | soluble
3 | MADYKDIVLIQSTSSLSASLGDRVTISCRASQDIRNYLNWYQQKPDGTVKLLIYYTSRLLPGVPSRFSGSGSGTDYSLTISNLEQEDIGTYFCQQGNTLPWTFGGGTKLEIRRGGGGSGGGGSGGGGSGGGGSEVQLQQSGPELVKPGASVKISCKDSGYAFSSSWMNWVKQRPGQGPEWIGRIYPGDGDTNYNGKFKGKATLTADKSSSTAYMQLSSLTSVDSAVYFCARSGLLRYAMDYWGQGTSVTVSS | soluble
4 | MAEAAQAPQQQFAIQRIYLKDVSFEAPSSPVMFQKEWNPDVKLDLDTQSRELGQGVYEVVLRLTVTVKNAEETAFLCEVQQAGIFSAEQMEAGQLAHCLGAFCPNILFPYARETISSLVVKGTFPQLNLAPVNFDALFMNYLQQQAQEGATANA | not soluble
5 | MAEASIEKTQILQKYLELDQRGRIIAEYVWIDGTGNLRSKGRTLKKRITSIDQLPEWNFDGSSTNQAPGHDSDIYLKPVAYYPDPFRRGDNIVVLAACYNNDGTPNKFNHRHEAAKLFAAHKDEEIWFGLEQEYTLFDMYDDVYGWPKGGYPAPQGPYYCGVGAGKVYARDMIEAHYRACLYAGLEISGINAEVMPSQWEFQVGPCTGIDMGDQLWMARYFLHRVAEEFGIKISFHPKPLKGDWNGAGCHANVSTKEMRQPGGTKYIEQAIEKLSKRHAEHIKLYGSDNDMRLTGRHETASMTAFSSGVANRGSSIRIPRSVAKEGYGYFEDRRPASNIDPYLVTGIMCETVCGAIDNADMTKEFERESS | soluble
6 | MAEASSANLGSGCEEKRHEGSSSESVPPGTTISRVKLLDTMVDTFLQKLVAAGSYQRFTDCYKCFYQLQPAMTQRIYDKFIAQLQTSIREEISDIKEEGNLEAVLNALDKIVEEGKVRKEPAWCEAQRCRVQQRCSLCVQAGGQRGSEETQALPVSMAGSPSPLPGSPGAQEGGV | not soluble
7 | MAEASSLVGKLETEVEIKASAKKFHHMFTERPHHVSKATPDKIHGYGKLTVGKNKIEAVDPEKNLITFKVLEGDLMNEYKSFAFTLQVTPKQGESGSIAHWHLEYEKISEEVAHPETLLQFCVEISKEIDEHLLAEE | soluble
8 | MAEATVLIPAFNEEATVGRVVRVAREAGFPVVVADDGSKDETARRALEAGAEVVRLKENRGKGGAIAEGLKAVRTPFVLLLDADLLGLRPEHLFALLKPLKEGEARMAVGVFRGGRASTDLAMRLTPFLSGQRALRLEDLRSVPGLERARYDLELLLTRHAKRAGWPVVYVPMEGVSQVMKEEKRGVLAGLGHRLRMYWEILRYRLRAR | soluble
9 | MAEGGAADLDTQRSDIATLLKTSLRKGDTWYLVDSRWFKQWKKYVGFDSWDKYQMGDQNVYPGPIDNSGLLKDGDAQSLKEHLIDELDYILLPTEGWNKLVSWYTLMEGQEPIARKVVEQGMFVKHCKVEVYLTELKLCENGNMNNVVTRRFSKADTIDTIEKEIRKIFSIPDEKETRLWNKYMSNTFEPLNKPDSTIQDAGLYQGQVLVIEQKNEDGTWPRGPSTPNVKNSNYCLPSYTAYKNYDYSEPGRNNEQPGLCGLSNLGNTCFMNSAIQCLSNTPPLTEYFLNDKYQEELNFDNPLGMRGEIAKSYAELIKQMWSGKFSYVTPRAFKTQVGRFAPQFSGYQQQDCQELLAFLLDGLHEDLNRIRKKPYIQLKDADGRPDKVVAEEAWENHLKRNDSIIVDIFHGLFKSTLVCPECAKISVTFDPFCYLTLPLPMKKERTLEVYLVRMDPLTKPMQYKVVVPKIGNILDLCTALSALSGIPADKMIVTDIYNHRFHRIFAMDENLSSIMERDDIYVFEININRTEDTEHVIIPVCLREKFRHSSYTHHTGSSLFGQPFLMAVPRNNTEDKLYNLLLLRMCRYVKISTETEETEGSLHCCKDQNINGNGPNGIHEEGSPSEMETDEPDDESSQDQELPSENENSQSEDSVGGDNDSENGLCTEDTCKGQLTGHKKRLFTFQFNNLGNTDINYIKDDTRHIRFDDRQLRLDERSFLALDWDPDLKKRYFDENAAEDFEKHESVEYKPPKKPFVKLKDCIELFTTKEKLGAEDPWYCPNCKEHQQATKKLDLWSLPPVLVVHLKRFSYSRYMRDKLDTLVDFPINDLDMSEFLINPNAGPCRYNLIAVSNHYGGMGGGHYTAFAKNKDDGKWYYFDDSSVSTASEDQIVSKAAYVLFYQRQDTFSGTGFFPLDRETKGASAATGIPLESDEDSNDNDNDIENENCMHTN | soluble
10 | MAELHIIGQIIGATGFPQNSLFCKWGVHTGGAWRLLSGLREGQTQVDMPQTGDMAYWSHPIDLHYTTKGLQGWPKLHLQVWHQDSFGRCQLYGYGYIHVPSSPGQHRLQCVTWRPLGSWQDQLSEMFVGGGPQLRSPDLIYSGADRYRLHTVGMGTVELELCIILRHFDRYGVES | not soluble
11 | MAELKDQLSLLGRKTEYKQDYAPEVLEAFDNKHPENDYWVRFNCPEFTSLCPITGQPDFAEIRISYIPDIKMVESKSLKLYLFSFRNHGAFHEDCVNIIMKDLIKLMNPKYIEVTGIFTPRGGISIYPYANYGRPGTKFEQMAEHRLMNRE | not soluble
12 | MAELYVKPGNKERGWNDPPQFSYGLQTQTGGPKRTPLTKRVAAPQDGSPRAPETSGPPPVDHPPPSSKASRPPPMGSCPATGVEPPSSPVIESETLIEDVLRPLEQALEDCHGHTKKQVCDDISRRLALLREQWAGGKLSIPVKKRMALLVQELLHHQWDAADDIHRSLMVDHVTEVSQWMVGVKRLIAEKKSLSSEETKEEKFTVEPENQTIPGFQQPS | soluble
13 | MAEREFDMTIEEVTIKVAPGLDYKVFGFNGQVPGPLIHVQEGDDVIVNVTNNTSLPHTIHWHGVHQKGTWRSDGVPGVTQQPIEAGDSYTYKFKADRIGTLWYHCHVNVNEHVGVRGMWGPLIVDPKQPLPIEKRVTKDVIMMMSTWESAVADKYGEGGTPMNVADYFSVNAKSFPLTQPLRVKKGDVVKIRFFGAGGGIHAMHSHGHDMLVTHKDGLPLDSPYYADTVLVSPGERYDVIIEADNPGRFIFHDHVDTHVTAGGKHPGGPITVIEYDGVPVDDWYVWKDKDYDPNFFYSESLKQGYGMFDHDGFKGEFEQRQRRPGRKLAAALEHHHHHH | soluble
14 | MAERGFREGTLEEASKILGVDKSSLASLSNLLAEKGVVEVEERVEEHYVLTERGRDALERGLPEEKLVLFLAGRGGEASVEEVRRALGEEAGIALGQAARKGLVVIAGGVVRLAVDQAEALKTITPLKKLLENVASGSKPTVGDELLREALSRGLIRREARRSIVLRLKVNPAEALARARVEAAVLTRDMLKSGEWRRLRFKPYNVKAEPPRVLPARRHFLAEFIERLRDILRELGFREVRGPLVELELFNFDVLFQAQDHPAREIHDSLWIKSPRRGDLSGYSDLVERVASVHERGWKYRWSPEVASRYILRSQTTAVSARILATRPNPPARFFTVGKVFRSDAVGPTRLPEFHQLDGIEGDEGYTFRDLLGRLDEIASMLGLKLKFKPAYFPFTEPSVEGYVKLPNGRWLELFGAGMFRPEVLEAVGVDYPVGAWGFGIERLAMAFYGVSDIRKLYTRNVDEVREMRVRWL | soluble
15 | MAESKAKNMFQKLSLTPKRNHEHDAGRNIETEEELLQKLKRLKLDNDYLHMWLSYEKLATIVENRSTDKTRKPEYGKLIFYYQGAAHALVSIWKRDSDLPFEQYISGDIARLFNKALDVAIRHMDPTVVHTIARDGGVALMSIDKPIEARDVLVRGENHLVAVPADGQLDFLERLIVLYYIMDSILIEERWNEYMVYTDKVWMMTMKEDKRCPLLENIIKEVEQVAVLLLVFQRKVECSERHKQLLASYRLDDWKAPIIKHNPPLSSLNPSEQKVFRRFLFYMMSNKRSVDKVLKHR | not soluble
16 | MAETKRMTVSQALVEFLGHQWTVDGDIRERTIPGMFGIFGHGNVAGIGQALKQYNVEQPELMPYYQARNEQAMVHQSVGYARMHRRRGTYASAASVGPGATNLLTGAALATTNRLPALLLPSDTFATRVADPVLQQLEQPWDIGLTVNDAFRPVSKFFDRVQRPEQLFSIALAAMRVLTDPAETGAVTIALPEDVQAEMLDVPVEFLQDREWHIRRPR | not soluble
17 | MAEVVVIGAGLSGTLMAYELLPQLGKDDRLSVISQGAIYHFVPSNPWVAVGWRKRDEIEIDLVDIMKRKGVRLLTQGAKRLHPTENRVELSDGTSINYDYLVVATGPELAFDEIPGLGPQGHTQSICHVDHASHAKDAFEKLAARPGPVVIGAVQGASCFGPAYEFLFILETELRRRKLRDQVPMTFVTSEPYVGHLGLDGVGDTKGLLEGEMREKHVKWITNARVKGVEAGKMVVEELGEGGAVHKTHELPFAYSMMLPAFRGVEAVRGIDKLTNPRGFVIVDKHQRNPAFPNVFAVGVCVAIAPVGATPVSVGVPKTGFMIESMVTATALNIGALLRGKEPSAQPTWNAICLADFGDSGVAFLAQPQIPPRNVNWSSKGEWVHYAKVAFEKYFLRKMRRGESEPFYERFLLDKLNIAKIKEVRTGTLEHHHHHH | soluble
18 | MAFLSQLQGGFAQLKQKAEAAAPSIADSLNQLKEAPKFMESAFKTGLNKVKLDSLGKVLNVPSLGRTQSPIDIVPVITAFGEHLQNAHFEVTYESTGEFKAVNDGNSIWLMREGNSSELAISFLPEEQYHLDAVNFHWATEPMNGSEHTIGGVGYAGEMHLIHRNTRFATMADALKQPNGVIAIAVFLNESHDDNAVFSPLINLLPQVIYKGSECKLCSFDFQTFFPVAEKTKEFWMYEGSETTDPFRETVNWIVIRAALPISSHQLDKLREVRAGRYDEEFSDKVPMKPLRPIQNPSSRTIQSSFRSVAGAPDLGFRQ | not soluble
